Source: patent US20190100563A1 (UNIVERSITY COURT OF THE UNIVERSITY OF EDINBURGH, published 2019)
Values joined by “and” are separate entries in the source; they are usually repeats but may differ in a detail not shown here. Equal values may be shown once.

T1: CFH 6-8 (recombinant construct corresponding to CFH CCPs 6-8) (human, UniProt P08603 321-509)
T1 sequence: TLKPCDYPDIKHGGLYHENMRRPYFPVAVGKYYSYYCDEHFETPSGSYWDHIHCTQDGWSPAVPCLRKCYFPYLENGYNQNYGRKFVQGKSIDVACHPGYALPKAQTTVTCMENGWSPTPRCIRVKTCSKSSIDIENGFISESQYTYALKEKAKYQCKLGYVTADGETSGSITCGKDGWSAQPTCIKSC

T2: CFH 8-15 (recombinant fragment, CCPs 8-15 of human CFH) (human, UniProt P08603 446-928)
T2 construct: also called CF8-15
T2 sequence: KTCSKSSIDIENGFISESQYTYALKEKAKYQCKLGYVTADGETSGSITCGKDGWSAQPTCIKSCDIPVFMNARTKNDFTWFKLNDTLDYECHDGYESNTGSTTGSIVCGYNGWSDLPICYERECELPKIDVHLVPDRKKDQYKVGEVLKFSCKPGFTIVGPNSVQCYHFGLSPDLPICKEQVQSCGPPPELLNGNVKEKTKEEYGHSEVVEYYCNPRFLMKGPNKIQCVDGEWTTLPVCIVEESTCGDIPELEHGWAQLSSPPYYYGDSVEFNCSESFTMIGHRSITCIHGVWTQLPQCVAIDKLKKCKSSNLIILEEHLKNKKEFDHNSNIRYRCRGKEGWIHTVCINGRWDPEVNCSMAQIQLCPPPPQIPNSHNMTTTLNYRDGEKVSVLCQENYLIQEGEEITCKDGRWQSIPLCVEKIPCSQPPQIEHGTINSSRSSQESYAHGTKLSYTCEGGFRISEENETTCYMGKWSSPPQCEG

T3: CFH 10-11 (recombinant fragment, CCPs 10-11 of human CFH) (human, UniProt P08603 567-686)
T3 sequence: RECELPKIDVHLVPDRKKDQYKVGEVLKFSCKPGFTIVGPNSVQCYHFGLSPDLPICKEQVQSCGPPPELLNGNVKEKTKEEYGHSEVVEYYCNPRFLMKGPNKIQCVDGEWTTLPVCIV

T4: CFH 10-15 (recombinant fragment, CCPs 10-15 of human CFH) (human, UniProt P08603 567-928)
T4 sequence: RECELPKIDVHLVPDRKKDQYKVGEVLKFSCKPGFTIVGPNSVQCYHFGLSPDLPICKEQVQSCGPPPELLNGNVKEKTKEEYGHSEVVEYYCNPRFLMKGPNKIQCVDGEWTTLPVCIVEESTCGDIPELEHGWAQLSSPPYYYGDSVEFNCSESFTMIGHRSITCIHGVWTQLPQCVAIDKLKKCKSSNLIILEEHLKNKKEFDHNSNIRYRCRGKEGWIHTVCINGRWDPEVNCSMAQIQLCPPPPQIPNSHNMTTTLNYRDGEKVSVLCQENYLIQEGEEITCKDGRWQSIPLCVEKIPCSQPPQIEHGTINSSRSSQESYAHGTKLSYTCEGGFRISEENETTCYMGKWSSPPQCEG

T5: CFH 8-9 (recombinant fragment, CCPs 8-9 of human CFH) (human, UniProt P08603 446-566)
T5 sequence: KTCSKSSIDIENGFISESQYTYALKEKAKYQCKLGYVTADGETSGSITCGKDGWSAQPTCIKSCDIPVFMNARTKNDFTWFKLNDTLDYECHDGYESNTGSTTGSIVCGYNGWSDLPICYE

B1: PspCN (cleaved, PspC residues 37-140, S. pneumoniae strain D39) (other)
chain: ATENEGSTQAATSSNMAKTEHRKAAKQVVDEYIEKMLREIQLDRRKHTQNVALNIKLSAIKTKYLRELNVLEEKSKDELPSEIKAKLDAAFEKFKKDTLKPGEK
B2: sPspCN (N-terminally hexaHis-SUMO-tagged PspC residues 37-140, S. pneumoniae strain D39) (other)
chain: B1 chain
notes: not shown: N-terminal hexaHis-SUMO tag from the pE-SUMOpro Kan vector

Key:
[1] = target: T6, Human complement factor H purified from plasma (human, UniProt P08603 19-1231); experiment: cell-based or functional assay
[2] = target: T7, Recombinant human CFH, wild-type sequence, from Pichia pastoris (human, UniProt P08603 19-1231); experiment: cell-based or functional assay
[3] = target: Human C3b (plasma-purified) (human, UniProt P01024 23-667; P01024 749-1663); experiment: SPR, amine-coupled C3 fragments on C1 chip
[4] = target: Human C3c (plasma-purified) (human, UniProt P01024 23-667; P01024 749-954; P01024 1321-1663); experiment: SPR, amine-coupled C3 fragments on C1 chip
[5] = target: T8, Human C3d (plasma-purified) (human, UniProt P01024 1002-1303); experiment: SPR, amine-coupled C3 fragments on C1 chip
T8 construct: domain: TED; also called TED of C3b

[6] = target: T1, CFH 6-8 (recombinant construct …); experiment: SPR, sPspCN on NTA/Ni2+ chip
[7] = target: T2, CFH 8-15 (recombinant fragment, CCPs …); experiment: SPR, sPspCN on NTA/Ni2+ chip
[8] = target: T3, CFH 10-11 (recombinant fragment, CCPs …); experiment: SPR, sPspCN on NTA/Ni2+ chip
[9] = target: T4, CFH 10-15 (recombinant fragment, CCPs …); experiment: SPR, immobilised sPspCN
[10] = target: T6, Human complement factor H purified from …; experiment: not stated there (SPR in the examples)
[11] = target: T6, Human complement factor H purified from …; experiment: SPR, sPspCN on NTA/Ni2+ chip, CFH as analyte, 1:1 kinetic fit
[12] = target: T7, Recombinant human CFH, wild-type …; experiment: SPR, sPspCN on NTA/Ni2+ chip, rCFH as analyte, 1:1 kinetic fit
[13] = target: T2, CFH 8-15 (recombinant fragment, CCPs …); experiment: SPR, sPspCN on NTA/Ni2+ chip, CFH 8-15 as analyte, 1:1 kinetic fit
[14] = target: T9, Recombinant human CFH (D1119G) from Pichia pastoris (human, UniProt P08603 19-1231); experiment: SPR, sPspCN on NTA/Ni2+ chip, rCFH-D1119G as analyte, 1:1 kinetic fit
T9 construct: also called rCFH-D1119G; rCFH (D1119G)

[15] = target: T5, CFH 8-9 (recombinant fragment, CCPs 8-9 …); experiment: SPR, sPspCN on NTA/Ni2+ chip, CFH 8-9 concentration series, equilibrium method

T6 sequence (P08603 19-1231 limits assumed): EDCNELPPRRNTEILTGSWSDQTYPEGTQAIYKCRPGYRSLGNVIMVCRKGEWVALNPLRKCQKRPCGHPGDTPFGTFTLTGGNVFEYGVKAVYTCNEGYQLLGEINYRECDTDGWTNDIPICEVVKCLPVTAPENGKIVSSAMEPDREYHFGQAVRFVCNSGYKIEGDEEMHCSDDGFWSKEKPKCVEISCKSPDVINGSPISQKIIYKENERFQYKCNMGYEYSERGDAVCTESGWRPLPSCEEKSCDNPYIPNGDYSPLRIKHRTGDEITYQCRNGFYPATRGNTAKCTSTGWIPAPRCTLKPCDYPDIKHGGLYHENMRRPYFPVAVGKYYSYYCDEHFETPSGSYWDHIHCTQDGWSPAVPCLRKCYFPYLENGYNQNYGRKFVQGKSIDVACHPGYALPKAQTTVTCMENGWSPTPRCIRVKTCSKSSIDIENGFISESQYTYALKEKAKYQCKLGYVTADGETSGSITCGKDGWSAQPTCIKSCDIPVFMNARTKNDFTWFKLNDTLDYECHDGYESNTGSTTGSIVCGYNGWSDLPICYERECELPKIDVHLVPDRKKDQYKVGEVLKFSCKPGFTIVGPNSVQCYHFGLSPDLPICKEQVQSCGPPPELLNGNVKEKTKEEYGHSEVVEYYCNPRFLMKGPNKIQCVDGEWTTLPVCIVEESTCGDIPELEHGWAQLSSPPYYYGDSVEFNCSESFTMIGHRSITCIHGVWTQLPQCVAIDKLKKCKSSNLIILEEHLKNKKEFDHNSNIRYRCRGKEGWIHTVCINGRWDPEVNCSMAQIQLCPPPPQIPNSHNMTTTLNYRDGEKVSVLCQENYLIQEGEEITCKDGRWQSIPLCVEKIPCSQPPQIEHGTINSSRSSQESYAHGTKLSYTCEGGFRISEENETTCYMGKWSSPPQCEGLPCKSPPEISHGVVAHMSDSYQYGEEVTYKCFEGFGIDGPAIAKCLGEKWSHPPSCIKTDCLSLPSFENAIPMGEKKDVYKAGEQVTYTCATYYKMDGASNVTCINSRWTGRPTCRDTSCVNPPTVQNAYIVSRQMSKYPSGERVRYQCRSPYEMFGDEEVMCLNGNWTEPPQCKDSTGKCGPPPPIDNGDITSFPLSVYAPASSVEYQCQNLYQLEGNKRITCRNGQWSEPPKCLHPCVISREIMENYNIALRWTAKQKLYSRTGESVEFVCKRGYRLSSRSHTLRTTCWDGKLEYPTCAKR
T7 sequence (P08603 19-1231 limits assumed): as above
T8 sequence (P01024 1002-1303 limits assumed): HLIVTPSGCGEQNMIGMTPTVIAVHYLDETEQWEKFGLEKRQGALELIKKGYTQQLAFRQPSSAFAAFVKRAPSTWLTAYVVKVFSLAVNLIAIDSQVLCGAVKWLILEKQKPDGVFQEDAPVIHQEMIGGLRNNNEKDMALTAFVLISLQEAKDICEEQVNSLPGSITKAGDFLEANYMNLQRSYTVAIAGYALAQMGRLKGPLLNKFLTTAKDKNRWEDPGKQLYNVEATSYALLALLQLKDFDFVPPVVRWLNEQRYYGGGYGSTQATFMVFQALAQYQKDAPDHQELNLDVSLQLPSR
T9 sequence (P08603 19-1231 D1119G limits assumed): as the sequence (P08603 19-1231 limits assumed) above, with D1101G counted along it
Chain of Human C3b (plasma-purified) (P01024 23-667 limits assumed, chain 1 of 2): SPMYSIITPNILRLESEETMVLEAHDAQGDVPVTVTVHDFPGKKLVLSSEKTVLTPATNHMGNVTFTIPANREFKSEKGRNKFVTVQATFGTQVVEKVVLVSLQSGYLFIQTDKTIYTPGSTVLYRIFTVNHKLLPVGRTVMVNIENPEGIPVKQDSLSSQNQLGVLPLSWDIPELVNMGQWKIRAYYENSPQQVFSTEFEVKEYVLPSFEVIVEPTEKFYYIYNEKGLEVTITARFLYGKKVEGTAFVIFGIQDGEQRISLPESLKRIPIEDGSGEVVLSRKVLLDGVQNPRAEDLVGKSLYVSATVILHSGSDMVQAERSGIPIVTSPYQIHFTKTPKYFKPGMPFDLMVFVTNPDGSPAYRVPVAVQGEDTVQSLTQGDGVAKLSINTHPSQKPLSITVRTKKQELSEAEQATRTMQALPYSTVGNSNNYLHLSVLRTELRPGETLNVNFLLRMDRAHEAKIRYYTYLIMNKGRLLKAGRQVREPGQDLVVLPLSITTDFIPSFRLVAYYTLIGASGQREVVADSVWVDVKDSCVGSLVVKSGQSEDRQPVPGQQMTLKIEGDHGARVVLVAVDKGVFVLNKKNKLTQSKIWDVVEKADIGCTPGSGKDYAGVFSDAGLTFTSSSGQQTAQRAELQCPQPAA
Chain of Human C3b (plasma-purified) (P01024 749-1663 limits assumed, chain 2 of 2): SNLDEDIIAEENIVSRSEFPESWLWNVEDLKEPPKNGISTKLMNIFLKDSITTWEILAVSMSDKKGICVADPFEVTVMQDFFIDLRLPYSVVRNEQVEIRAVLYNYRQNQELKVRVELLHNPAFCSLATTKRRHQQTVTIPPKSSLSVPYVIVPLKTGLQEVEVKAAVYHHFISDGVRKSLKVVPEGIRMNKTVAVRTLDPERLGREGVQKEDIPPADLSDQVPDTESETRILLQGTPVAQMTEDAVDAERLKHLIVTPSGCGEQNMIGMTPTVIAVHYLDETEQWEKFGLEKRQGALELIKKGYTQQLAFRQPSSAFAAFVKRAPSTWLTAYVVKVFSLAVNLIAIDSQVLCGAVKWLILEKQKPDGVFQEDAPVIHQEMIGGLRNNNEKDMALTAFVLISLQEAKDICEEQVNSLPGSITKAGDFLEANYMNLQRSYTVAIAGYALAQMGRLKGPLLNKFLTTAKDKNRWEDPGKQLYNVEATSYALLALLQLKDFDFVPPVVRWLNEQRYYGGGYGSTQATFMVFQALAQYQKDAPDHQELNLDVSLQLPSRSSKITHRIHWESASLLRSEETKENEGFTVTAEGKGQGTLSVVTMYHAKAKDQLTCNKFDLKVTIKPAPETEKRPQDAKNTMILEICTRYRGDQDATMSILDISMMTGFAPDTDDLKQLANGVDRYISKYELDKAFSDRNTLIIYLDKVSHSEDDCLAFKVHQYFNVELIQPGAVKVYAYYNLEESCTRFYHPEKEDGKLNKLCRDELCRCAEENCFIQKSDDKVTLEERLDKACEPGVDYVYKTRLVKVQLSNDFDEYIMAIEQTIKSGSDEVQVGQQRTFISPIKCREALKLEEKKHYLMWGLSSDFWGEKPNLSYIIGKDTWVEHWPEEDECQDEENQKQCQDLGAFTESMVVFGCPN
Chain of Human C3c (plasma-purified) (P01024 23-667, chain 1 of 3): as the sequence (P01024 23-667 limits assumed, chain 1 of 2) above
Chain of Human C3c (plasma-purified) (P01024 749-954, chain 2 of 3): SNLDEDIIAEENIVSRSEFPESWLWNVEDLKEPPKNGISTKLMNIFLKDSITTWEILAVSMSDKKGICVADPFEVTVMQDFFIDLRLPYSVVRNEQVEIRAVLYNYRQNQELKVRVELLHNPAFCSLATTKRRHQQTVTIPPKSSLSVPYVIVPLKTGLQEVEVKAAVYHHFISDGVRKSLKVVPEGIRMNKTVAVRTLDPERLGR
Chain of Human C3c (plasma-purified) (P01024 1321-1663, chain 3 of 3): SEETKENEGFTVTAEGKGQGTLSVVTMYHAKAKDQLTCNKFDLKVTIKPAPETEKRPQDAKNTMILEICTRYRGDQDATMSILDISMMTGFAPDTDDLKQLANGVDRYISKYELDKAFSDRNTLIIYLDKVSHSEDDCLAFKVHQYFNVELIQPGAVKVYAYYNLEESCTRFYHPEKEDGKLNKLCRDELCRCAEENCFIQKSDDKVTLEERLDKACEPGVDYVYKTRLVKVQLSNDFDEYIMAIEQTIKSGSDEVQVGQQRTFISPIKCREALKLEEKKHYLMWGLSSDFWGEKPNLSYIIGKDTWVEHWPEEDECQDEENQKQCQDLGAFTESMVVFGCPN

Binder	inhibition of haemolysis of PNH-like erythrocytes by acidified normal human serum, IC50 [1]	rate of decay acceleration of C3b.Bb (SPR-based assay) [2]	binding result [3]	binding result [4]	binding result [5]	binding result [6]	Kd [7]	binding result [8]	binding result [9]	Kd [10]	Kd [11]	Kd [12]	Kd [13]	Kd [14]	Kd [15]
B1	28 nM	~10 fold	no binding	no binding	no binding	–	–	–	–	–	–	–	–	–	–
B2	–	–	–	–	–	no binding	1 nM and 2 nM	no binding	no binding (tested: 50 nM (from the legend))	~0.05 pM	0.045 pM	0.053 pM	1.3 nM	0.012 nM	26 nM
